Sequences and labels used below:
B3: native human α2-antiplasmin (other, UniProt P08697 40-491, looked up)
chain: NQEQVSPLTLLKLGNQEPGGQTALKSPPGVCSRDPTPEQTHRLARAMMAFTADLFSLVAQTSTCPNLILSPLSVALALSHLALGAQNHTLQRLQQVLHAGSGPCLPHLLSRLCQDLGPGAFRLAARMYLQKGFPIKEDFLEQSEQLFGAKPVSLTGKQEDDLANINQWVKEATEGKIQEFLSGLPEDTVLLLLNAIHFQGFWRNKFDPSLTQRDSFHLDEQFTVPVEMMQARTYPLRWFLLEQPEIQVAHFPFKNNMSFVVLVPTHFEWNVSQVLANLSWDTLHPPLVWERPTKVRLPKLYLKHQMDLVATLSQLGLQELFQAPDLRGISEQSLVVSGVQHQSTLELSEVGVEAAAATSIAMSRMSLSSFSVNRPFLFFIFEDTTGLPLFVGSVRNPNPSAPRELKEQQDSPGNKDFLQSLKGFPRGDKLFGPDLKLVPPMEEDYPQFGSPK
modifications: radioiodinated (125I) in the binding assays
notes: mature; Bought native protein; also called native human α2-AP; native α2-AP

Experiment [1] has as its target B3. Briefly: k1, rate constant of reversible complex formation, from continuous inhibition kinetics with S-2251. As for the experimental part: (§1) Native α₂-AP (1.8 μM) was pre-incubated with or without of MAbs (49, 77, Dig-control; 1.8 μM or RWR 1.8 μM and 18 μM) for 60 min at 4° C. The fast inhibition of plasmin, micro-plasmin and trypsin was examined by a continuous method as described (Wiman, B. and Collen, D. On the kinetics of the reaction between human antiplasmin and plasmin. Eur J Biochem 1978; 84: 573-578). The serine protease (20 nM) was added to a cuvette containing S-2251 (500 μM) in 300 μl of TBS buffer, and the change in absorbance at 405 nm was recorded at 0.1-min intervals prior to and after the addition of 10 μl of α₂-AP (1.8 μM) or preformed α₂-AP/MAb complex. The final concentration of α₂-AP in the cuvette was 60 nM. The percentage of residual protease activity was calculated from the initial value (defined as 100%). The inhibition constant (i.e., k₁, the rate constant of reversible complex formation) was determined as described (Turner et al., 2002, J Biol. Chem. 277:33068-33074).

In experiment [2] the target is T1, human Lys-plasmin (human, UniProt P00747 97-810). Briefly: cell-based or functional assay.
The target of experiment [3] is T1, human Lys-plasmin. Briefly: k1, rate constant of reversible complex formation, from continuous inhibition kinetics with S-2251. As for the experimental part:
as §1

B1: micro-plasmin (enzyme, human, UniProt P00747 562-810, looked up)
chain: APSFDCGKPQVEPKKCPGRVVGGCVAHPHSWPWQVSLRTRFGMHFCGGTLISPEWVLTAAHCLEKSPRPSSYKVILGAHQEVNLEPHVQEIEVSRLFLEPTRKDIALLKLSSPAVITDKVIPACLPSPNYVVADRTECFITGWGETQGTFGAGLLKEAQLPVIENKVCNRYEFLNGRVQSTELCAGHLAGGTDSCQGDSGGPLVCFEKDKYILQGVTSWGLGCARPNKPGVYVRVSRFVTWIEGVMRNN
notes: domain: micro-plasmin; Made as in Reed et al., 1999; also called human micro-plasmin
As usually defined, the kon is a measure of how fast the partners come together. A lower kon goes with slow association. For the molecule B1, the kon in experiment [1] came out at 33000 M⁻¹ s⁻¹.

B2: pork trypsin (enzyme, UniProt P00761 9-231, looked up)
chain: IVGGYTCAANSIPYQVSLNSGSHFCGGSLINSQWVVSAAHCYKSRIQVRLGEHNIDVLEGNEQFINAAKIITHPNFNGNTLDNDIMLIKLSSPATLNSRVATVSLPRSCAAAGTECLISGWGNTKSSGSSYPSLLQCLKAPVLSDSSCKSSYPGQITGNMICVGFLEGGKDSCQGDSGGPVVCNGQLQGIVSWGYGCAQKNKPGVYTKVCNYVNWIQQTIAAN
In experiment [1], B2 came in with a kon of 476000 M⁻¹ s⁻¹.
On to B3, for which the “stoichiometry of inhibition (SI)” value in experiment [2] was found to be 1.1. In addition, the kon in experiment [3] was > 2.6e+06 M⁻¹ s⁻¹.

For the origin of these results see patent publication US20160039943A1 (TRANSLATIONAL SCIENCES, published 2016).
